assay: melting temperature; melt of duplexes; details: sodium 0.0675 M; strand 1 µM

| Substance | Tm [°C] |
| --- | --- |
| CGACGTGCTTGATGTGCTG+CAGCACATTCGGCACGTCG ((((((((...((((((((+))))))))...)))))))) | 50.1 |
| CGACGTGCTCTATGTGCTG+CAGCACATTGTGCACGTCG ((((((((.(.((((((((+)))))))).).)))))))) | 48.3 |
| CGACGTGCAAAATGTGCTG+CAGCACATTAAGCACGTCG ((((((((..(((((((((+)))))))))..)))))))) | 52.4 |
| CGACGTGCACTATGTGCTG+CAGCACATTAGGCACGTCG ((((((((...((((((((+))))))))...)))))))) | 46.4 |
| CGACGTGCACAATGTGCTG+CAGCACATGGAGCACGTCG ((((((((.(.((((((((+)))))))).).)))))))) | 52.5 |
| CGACGTGCACTATGTGCTG+CAGCACATCTCGCACGTCG ((((((((...((((((((+))))))))...)))))))) | 41.6 |
| CGACGTGCTTGATGTGCTG+CAGCACATTACGCACGTCG ((((((((.(.((((((((+)))))))).).)))))))) | 50.1 |
| CGACGTGCGGTATGTGCTG+CAGCACATGCCGCACGTCG ((((((((((.((((((((+)))))))).)))))))))) | 63.4 |
| CGACGTGCATAATGTGCTG+CAGCACATATGGCACGTCG ((((((((...((((((((+))))))))...)))))))) | 50.4 |
| CGACGTGCAGCATGTGCTG+CAGCACATCACGCACGTCG ((((((((...((((((((+))))))))...)))))))) | 46.7 |
| CGACGTGCGGTATGTGCTG+CAGCACATGGTGCACGTCG ((((((((...((((((((+))))))))...)))))))) | 51.5 |
| CGACGTGCGATATGTGCTG+CAGCACATTCGGCACGTCG ((((((((...((((((((+))))))))...)))))))) | 52.7 |
| CGACGTGCACTATGTGCTG+CAGCACATCACGCACGTCG ((((((((...((((((((+))))))))...)))))))) | 43.3 |
| CGACGTGCTCGATGTGCTG+CAGCACATCCCGCACGTCG ((((((((..(((((((((+)))))))))..)))))))) | 52.1 |
| CGACGTGCTCGATGTGCTG+CAGCACATAGAGCACGTCG ((((((((((.((((((((+)))))))).)))))))))) | 59.5 |
| CGACGTGCCGAATGTGCTG+CAGCACATTCAGCACGTCG ((((((((.((((((((((+)))))))))).)))))))) | 57 |
| CGACGTGCCAAATGTGCTG+CAGCACATCAAGCACGTCG ((((((((...((((((((+))))))))...)))))))) | 49.3 |
| CGACGTGCGTAATGTGCTG+CAGCACATTCAGCACGTCG ((((((((..(((((((((+)))))))))..)))))))) | 54.7 |
| CGACGTGCCGGATGTGCTG+CAGCACATTGCGCACGTCG ((((((((...((((((((+))))))))...)))))))) | 49.9 |
| CGACGTGCAAAATGTGCTG+CAGCACATGTTGCACGTCG ((((((((((.((((((((+)))))))).)))))))))) | 56.4 |
| CGACGTGCTTCATGTGCTG+CAGCACATACCGCACGTCG ((((((((...((((((((+))))))))...)))))))) | 47.3 |
| CGACGTGCTGTATGTGCTG+CAGCACATCATGCACGTCG ((((((((...((((((((+))))))))...)))))))) | 50.9 |
| CGACGTGCACTATGTGCTG+CAGCACATTCGGCACGTCG ((((((((...((((((((+))))))))...)))))))) | 43.7 |
| CGACGTGCAAGATGTGCTG+CAGCACATGTGGCACGTCG ((((((((.(.((((((((+)))))))).).)))))))) | 52.8 |

| Substance | Tm [°C] |
| --- | --- |
| CGACGTGCACAATGTGCTG+CAGCACATAAAGCACGTCG ((((((((...((((((((+))))))))...)))))))) | 47.4 |
| CGACGTGCAACATGTGCTG+CAGCACATAAGGCACGTCG ((((((((...((((((((+))))))))...)))))))) | 47.8 |
| CGACGTGCTTCATGTGCTG+CAGCACATCACGCACGTCG ((((((((.(.((((((((+)))))))).).)))))))) | 47.8 |
| CGACGTGCTTGATGTGCTG+CAGCACATGGCGCACGTCG ((((((((...((((((((+))))))))...)))))))) | 47.2 |
| CGACGTGCGGGATGTGCTG+CAGCACATATTGCACGTCG ((((((((...((((((((+))))))))...)))))))) | 51.4 |
| CGACGTGCCAAATGTGCTG+CAGCACATCTTGCACGTCG ((((((((.(.((((((((+)))))))).).)))))))) | 48.7 |
| CGACGTGCATGATGTGCTG+CAGCACATGGAGCACGTCG ((((((((...((((((((+))))))))...)))))))) | 50.1 |
| CGACGTGCGTTATGTGCTG+CAGCACATAGCGCACGTCG (((((((((.(((((((((+))))))))).))))))))) | 58.3 |
| CGACGTGCAATATGTGCTG+CAGCACATTGAGCACGTCG ((((((((...((((((((+))))))))...)))))))) | 50.4 |
| CGACGTGCCCCATGTGCTG+CAGCACATCCAGCACGTCG ((((((((...((((((((+))))))))...)))))))) | 47.4 |
| CGACGTGCCGAATGTGCTG+CAGCACATTAAGCACGTCG ((((((((..(((((((((+)))))))))..)))))))) | 52.3 |
| CGACGTGCACAATGTGCTG+CAGCACATCCGGCACGTCG ((((((((...((((((((+))))))))...)))))))) | 46.1 |
| CGACGTGCCGCATGTGCTG+CAGCACATCACGCACGTCG ((((((((...((((((((+))))))))...)))))))) | 48.3 |
| CGACGTGCCATATGTGCTG+CAGCACATCCTGCACGTCG ((((((((...((((((((+))))))))...)))))))) | 47.7 |
| CGACGTGCAAAATGTGCTG+CAGCACATCTCGCACGTCG ((((((((.(.((((((((+)))))))).).)))))))) | 48.6 |
| CGACGTGCTAAATGTGCTG+CAGCACATTAAGCACGTCG (((((((((.(((((((((+))))))))).))))))))) | 55.8 |
| CGACGTGCGACATGTGCTG+CAGCACATGCGGCACGTCG ((((((((..(((((((((+)))))))))..)))))))) | 54.4 |
| CGACGTGCTGTATGTGCTG+CAGCACATCCGGCACGTCG ((((((((.(.((((((((+)))))))).).)))))))) | 52.8 |
| CGACGTGCCTTATGTGCTG+CAGCACATCACGCACGTCG ((((((((.(.((((((((+)))))))).).)))))))) | 46.7 |
| CGACGTGCAGTATGTGCTG+CAGCACATCTGGCACGTCG ((((((((...((((((((+))))))))...)))))))) | 51.4 |
| CGACGTGCACAATGTGCTG+CAGCACATACAGCACGTCG ((((((((...((((((((+))))))))...)))))))) | 45.4 |
| CGACGTGCGAAATGTGCTG+CAGCACATTGAGCACGTCG ((((((((..(((((((((+)))))))))..)))))))) | 61.3 |
| CGACGTGCGCGATGTGCTG+CAGCACATAGCGCACGTCG ((((((((((.((((((((+)))))))).)))))))))) | 63 |
| CGACGTGCTGGATGTGCTG+CAGCACATCGAGCACGTCG (((((((((.(((((((((+))))))))).))))))))) | 59.3 |

| Substance | Tm [°C] |
| --- | --- |
| CGACGTGCGTAATGTGCTG+CAGCACATATTGCACGTCG ((((((((...((((((((+))))))))...)))))))) | 50.5 |
| CGACGTGCGAGATGTGCTG+CAGCACATCCGGCACGTCG ((((((((..(((((((((+)))))))))..)))))))) | 55.7 |
| CGACGTGCATAATGTGCTG+CAGCACATTAAGCACGTCG ((((((((.((((((((((+)))))))))).)))))))) | 55.1 |
| CGACGTGCAACATGTGCTG+CAGCACATGCAGCACGTCG ((((((((..(((((((((+)))))))))..)))))))) | 53.9 |
| CGACGTGCCAGATGTGCTG+CAGCACATCCCGCACGTCG ((((((((..(((((((((+)))))))))..)))))))) | 53.3 |
| CGACGTGCTTCATGTGCTG+CAGCACATCAAGCACGTCG ((((((((((.((((((((+)))))))).)))))))))) | 53.3 |
| CGACGTGCGCCATGTGCTG+CAGCACATACAGCACGTCG ((((((((...((((((((+))))))))...)))))))) | 51.3 |
| CGACGTGCGACATGTGCTG+CAGCACATGTTGCACGTCG ((((((((.((((((((((+)))))))))).)))))))) | 60.9 |
| CGACGTGCCTGATGTGCTG+CAGCACATTTGGCACGTCG (((((((((..((((((((+))))))))..))))))))) | 55.6 |
| CGACGTGCGAAATGTGCTG+CAGCACATGCGGCACGTCG ((((((((...((((((((+))))))))...)))))))) | 51.7 |
| CGACGTGCCTAATGTGCTG+CAGCACATCCTGCACGTCG ((((((((...((((((((+))))))))...)))))))) | 47.9 |
| CGACGTGCGAGATGTGCTG+CAGCACATGCTGCACGTCG ((((((((...((((((((+))))))))...)))))))) | 50.4 |
| CGACGTGCCATATGTGCTG+CAGCACATGTTGCACGTCG ((((((((.(.((((((((+)))))))).).)))))))) | 50.8 |
| CGACGTGCTTAATGTGCTG+CAGCACATCGCGCACGTCG ((((((((...((((((((+))))))))...)))))))) | 46.7 |
| CGACGTGCTTAATGTGCTG+CAGCACATAGGGCACGTCG ((((((((...((((((((+))))))))...)))))))) | 50 |
| CGACGTGCTGTATGTGCTG+CAGCACATTGCGCACGTCG ((((((((...((((((((+))))))))...)))))))) | 47.9 |
| CGACGTGCAGGATGTGCTG+CAGCACATCCCGCACGTCG ((((((((.((((((((((+)))))))))).)))))))) | 59 |
| CGACGTGCTGGATGTGCTG+CAGCACATGAGGCACGTCG ((((((((...((((((((+))))))))...)))))))) | 54 |
| CGACGTGCTACATGTGCTG+CAGCACATGCCGCACGTCG ((((((((..(((((((((+)))))))))..)))))))) | 52.3 |
| CGACGTGCACGATGTGCTG+CAGCACATCTGGCACGTCG ((((((((..(((((((((+)))))))))..)))))))) | 53.6 |
| CGACGTGCCAGATGTGCTG+CAGCACATGAGGCACGTCG (((((((((..((((((((+))))))))..))))))))) | 55.4 |
| CGACGTGCGCAATGTGCTG+CAGCACATCCAGCACGTCG ((((((((...((((((((+))))))))...)))))))) | 51.1 |
| CGACGTGCCCGATGTGCTG+CAGCACATATTGCACGTCG ((((((((...((((((((+))))))))...)))))))) | 47.7 |
| CGACGTGCTAAATGTGCTG+CAGCACATTGCGCACGTCG ((((((((..(((((((((+)))))))))..)))))))) | 51.2 |

— the array DNA melting data of Ke et al.
